Legend:
[1] = target: human FcRn (heterodimer of alpha chain and beta2-microglobulin) (human) (UniProt P55899); assay: Biacore (SPR), column 'hFcRn Affinity (uM)'; antibody captured on anti-hFab CM5 chip, hFcRn as analyte, PBS pH 6.0, 1:1 Langmuir fit
[2] = target: recombinant human TNF (human) (UniProt P01375); assay: Biacore (SPR), column 'hTNF Affinity (pM)'; antibody amine-coupled to a CM4 chip, recombinant human TNF as analyte at 6.25-200 nM in HBS-EP pH 7.4, 1:1 Langmuir fit
recombinant human TNF (human), sequence (P01375 77-233 limits assumed): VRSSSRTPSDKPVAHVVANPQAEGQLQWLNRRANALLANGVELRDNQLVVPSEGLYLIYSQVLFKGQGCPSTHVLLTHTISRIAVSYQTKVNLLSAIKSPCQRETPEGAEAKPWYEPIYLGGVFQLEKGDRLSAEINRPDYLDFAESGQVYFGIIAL

human FcRn (heterodimer of alpha chain and beta2-microglobulin) (human), sequence (P55899 24-297 limits assumed, chain 1 of 2): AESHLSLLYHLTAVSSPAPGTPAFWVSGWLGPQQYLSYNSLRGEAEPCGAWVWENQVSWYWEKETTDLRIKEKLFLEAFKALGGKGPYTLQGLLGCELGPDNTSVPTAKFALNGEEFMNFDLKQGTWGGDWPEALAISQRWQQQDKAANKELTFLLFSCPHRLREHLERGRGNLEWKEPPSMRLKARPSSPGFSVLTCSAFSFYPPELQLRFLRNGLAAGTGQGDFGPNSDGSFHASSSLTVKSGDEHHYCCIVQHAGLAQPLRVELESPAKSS
human FcRn (heterodimer of alpha chain and beta2-microglobulin) (human), sequence (P61769 21-119 limits assumed, chain 2 of 2, further chain): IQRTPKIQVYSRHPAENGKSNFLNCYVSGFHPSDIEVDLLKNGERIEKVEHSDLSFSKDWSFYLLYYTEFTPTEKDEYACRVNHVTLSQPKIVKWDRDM

Humira (Commercial) adalimumab (antibody)
Kd [1]: 2000 nM | Kd [2]: 0.00042 nM
